Source: PMC6486635, “IMP1 KH1 and KH2 domains create a structural platform with unique RNA recognition and re-modelling properties”

Legend:
[1] = molecular target: IMP1 KH1DDKH2 (Homo sapiens, UniProt Q9NZI8 194-369, K213D;E214D); assay: ITC; 10 mM sodium phosphate pH 7.4, 50 mM NaCl; ITC 25 C with 2 mM TCEP; BLI 30 C with 0.5 mM TCEP and 0.5 mg/ml BSA; NMR 0.5 mM TCEP; RNAsin 40-100 u/ml; conditions: protein: recombinant; tags: 6xHis-GST removed by TEV
[2] = molecular target: T1, IMP1 KH1KH2DD (Homo sapiens, UniProt Q9NZI8 194-369, K294D;E295D); assay: as above; conditions: protein: recombinant; tags: 6xHis-GST removed by TEV
T1 sequence (Q9NZI8 194-369 K294D/E295D): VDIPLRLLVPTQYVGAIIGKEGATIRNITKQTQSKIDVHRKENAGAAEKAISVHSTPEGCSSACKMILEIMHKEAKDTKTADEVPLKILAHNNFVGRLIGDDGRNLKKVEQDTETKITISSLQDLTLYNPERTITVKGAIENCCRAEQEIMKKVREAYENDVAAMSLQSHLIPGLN

[3] = molecular target: IMP1 KH1KH2 wild type (Homo sapiens, UniProt Q9NZI8 194-369); assay: BLI; 10 mM sodium phosphate pH 7.4, 50 mM NaCl; ITC 25 C with 2 mM TCEP; BLI 30 C with 0.5 mM TCEP and 0.5 mg/ml BSA; NMR 0.5 mM TCEP; RNAsin 40-100 u/ml; conditions: protein: recombinant; tags: 6xHis-GST removed by TEV; label: 5'-biotin
IMP1 KH1KH2 wild type, sequence (Q9NZI8 194-369): as the sequence (Q9NZI8 194-369 K294D/E295D) above, with D101K, D102E counted along it

[4] = molecular target: T1, IMP1 KH1KH2DD; assay: as above; conditions: protein: recombinant; tags: 6xHis-GST removed by TEV; label: 5'-biotin

IMP1 KH1DDKH2, sequence (Q9NZI8 194-369 K213D/E214D): as the sequence (Q9NZI8 194-369 K294D/E295D) above, with K20D, E21D, D101K, D102E counted along it

Binder	Kd [2] [nM]	other results
UCCCG (ssRNA)		Kd [1]: 100000 ± 4000 nM
UGCGU (ssRNA)	26000 ± 2000	
UUCGU (ssRNA)	25000 ± 2000	
UUCCG (ssRNA)		Kd [1]: 124000 ± 15000 nM
UACGU (ssRNA)	25000 ± 1000	
UCCCU (ssRNA)		binding result [2]: no binding
UCUGU (ssRNA)	2600 ± 80	
UCAGU (ssRNA)	1000 ± 30	
UCCGC (ssRNA)	800 ± 40	
CACAGCAUACAUCCUGUCCGUC (ssRNA) [MYCRNA]		Kd [3]: 46 ± 8 nM; Kd [4]: 1760 ± 200 nM
UCCGU (ssRNA)	500 ± 10	
